The results in this text go back to CN111778218A (SHANDONG KUANHEZHENG BIOTECHNOLOGY MEDICINE CO LTD, dated 2020).

B1: 噬菌体展示的单克隆抗体A9 (antibody, V domains shown)
VH: EVQLLESGGGLVQPGGSLRLSCAASGFTFSSYAMSWVRQAPGKGLEWVSGITNSGSSTSYADSVKGRFTISRDNSKNTLYLQMNSLRAEDTAVYYCAKGTDAFDYWGQGTLVTVSS
VL: DIQMTQSPSSLSASVGDRVTITCRASQSISSYLNWYQQKPGKAPKLLIYAASTLQSGVPSRFSGSGSGTDFTLTISSLQPEDFATYYCQQSNCSPATFGQGTKVEIKR
notes: also called A9抗体
B2: 噬菌体展示的单克隆抗体H9 (antibody, V domains shown)
VH: EVQLLESGGGLVQPGGSLRLSCAASGFTFSSYAMSWVRQAPGKGLEWVSDITDNGASTGYADSVKGRFTISRDNSKNTLYLQMNSLRAEDTAVYYCAKSTNTFDYWGQGTLVTVSS
VL: DIQMTQSPSSLSASVGDRVTITCRASQSISSYINWYQQKPGKAPKLLIYDASSLQSGVPSRFSGSGSGTDFTLTISSLQPEDFATYYCQQNSNSPSTFGQGTKVEIKR
notes: also called H9抗体
B3: 噬菌体展示的单克隆抗体E11 (antibody, V domains shown)
VH: EVQLLESGGGLVQPGGSLRLSCAASGFTFSSYAMSWVRQAPGKGLEWVSSIDSSGYYTSYADSVKGRFTISRDNSKNTLYLQMNSLRAEDTAVYYCAKNSDSFDYWGQGTLVTVSS
VL: DIQMTQSPSSLSASVGDRVTITCRASQSISSYLNWYQQKPGKAPKLLIYSASYLQSGVPSRFSGSGSGTDFTLTISSLQPEDFATYYCQQYDDGPNTFGQGTKVEIKR
notes: also called E11抗体
B4: 噬菌体展示的单克隆抗体F10 (antibody, V domains shown)
VH: EVQLLESGGGLVQPGGSLRLSCAASGFTFSSYAMSWVRQAPGKGLEWVSGIDSAGYYTTYADSVKGRFTISRDNSKNTLYLQMNSLRAEDTAVYYCAKDSDTFDYWGQGTLVTVSS
VL: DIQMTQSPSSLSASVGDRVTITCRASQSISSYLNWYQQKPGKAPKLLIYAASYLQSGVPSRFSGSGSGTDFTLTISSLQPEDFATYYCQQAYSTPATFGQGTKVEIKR
notes: also called F10抗体
B5: 噬菌体展示的单克隆抗体F5 (antibody, V domains shown)
VH: EVQLLESGGGLVQPGGSLRLSCAASGFTFSSYAMSWVRQAPGKGLEWVSTIDSAGNSTTYADSVKGRFTISRDNSKNTLYLQMNSLRAEDTAVYYCAKNDSSFDYWGQGTLVTVSS
VL: DIQMTQSPSSLSASVGDRVTITCRASQSISSYLNWYQQKPGKAPKLLIYSASWLQSGVPSRFSGSGSGTDFTLTISSLQPEDFATYYCQQYSDGPDTFGQGTKVEIKR
notes: also called F5抗体; 噬菌体展示F5抗体

The target in the test is T1, 牛血清白蛋白BSA (牛 (bovine), UniProt P02769 25-607).
T1 construct: also called 牛血清蛋白
T1 sequence (P02769 25-607 limits assumed): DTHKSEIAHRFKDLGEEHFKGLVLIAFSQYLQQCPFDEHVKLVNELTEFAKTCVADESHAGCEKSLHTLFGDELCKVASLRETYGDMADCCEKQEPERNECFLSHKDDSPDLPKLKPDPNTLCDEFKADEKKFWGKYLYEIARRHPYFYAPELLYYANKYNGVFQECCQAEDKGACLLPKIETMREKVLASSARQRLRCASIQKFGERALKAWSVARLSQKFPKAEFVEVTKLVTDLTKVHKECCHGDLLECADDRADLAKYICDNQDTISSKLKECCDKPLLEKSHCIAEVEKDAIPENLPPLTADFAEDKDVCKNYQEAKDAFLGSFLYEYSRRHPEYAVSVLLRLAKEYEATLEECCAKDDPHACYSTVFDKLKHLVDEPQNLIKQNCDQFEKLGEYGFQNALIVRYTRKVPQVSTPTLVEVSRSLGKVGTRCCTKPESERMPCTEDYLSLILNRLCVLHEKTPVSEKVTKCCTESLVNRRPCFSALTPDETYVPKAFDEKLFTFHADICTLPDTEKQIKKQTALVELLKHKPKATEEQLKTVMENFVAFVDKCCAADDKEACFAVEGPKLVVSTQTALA
Nature of the test: phage ELISA, BSA coated at 1 μg/mL. (In general: ELISA stands for enzyme-linked immunosorbent assay.)
With B1, the binding result is on record as “no binding”. Regarding B2, the binding result is recorded as “no binding”. To B3 belongs “no binding”.

Consider B4, for which the binding result was “no binding”.

Regarding B5, the binding result was “no binding”.
